This data set concerns the molecule itself. Briefly: native MS.

Here are results for one protein from article PMC4058633 (Nature protocols, 2013).

As usually defined, the stoichiometry N is the number of molecules, sites or subunits per partner or assembly.

B1: pentameric ligand-gated ion channel of Erwinia chrysanthemi (ELIC) (natural protein)
chain: APADNAADARPVDVSVSIFINKIYGVNTLEQTYKVDGYIVAQWTGKPRKTPGDKPLIVENTQIERWINNGLWVPALEFINVVGSPDTGNKRLMLFPDGRVIYNARFLGSFSNDMDFRLFPFDRQQFVLELEPFSYNNQQLRFSDIQVYTENIDNEEIDEWWIRKASTHISDIRYDHLSSVQPNQNEFSRITVRIDAVRNPSYYLWSFILPLGLIIAASWSVFWLESFSERLQTSFTLMLTVVAYAFYTSNILPRLPYTTVIDQMIIAGYGSIFAAILLIIFAHHRQAMGVEDDLLIQRCRLAFPLGFLAIGCVLVIRGITL
Consider B1, for which the “stoichiometry N” value was 5.
